Reference: patent publication US11065317B2, “Heat shock protein-binding peptide compositions and methods of use thereof” (Agenus Inc., priority 2018, dated 2021)

Legend:
human Hsc70 = target: T1, human Hsc70 (Homo sapiens, UniProt P11142); experiment: Percent complexation of peptides with Hsc70 by size exclusion chromatography; format: binding; conditions: 60 minutes at 30° C., SEC, 214 nm; for Percent complexation of peptides with Hsc70, 0.25:1: peptide:Hsc70 molar ratio 0.25:1; for Percent complexation of peptides with Hsc70, 0.5:1: peptide:Hsc70 molar ratio 0.5:1; for Percent complexation of peptides with Hsc70, 1:1: peptide:Hsc70 molar ratio 1:1; for Percent complexation of peptides with Hsc70, 2:1: peptide:Hsc70 molar ratio 2:1; for Percent complexation of peptides with Hsc70, 4:1: peptide:Hsc70 molar ratio 4:1
T1 construct: made in house; host or cells: E. coli
T1 sequence (P11142 whole entry): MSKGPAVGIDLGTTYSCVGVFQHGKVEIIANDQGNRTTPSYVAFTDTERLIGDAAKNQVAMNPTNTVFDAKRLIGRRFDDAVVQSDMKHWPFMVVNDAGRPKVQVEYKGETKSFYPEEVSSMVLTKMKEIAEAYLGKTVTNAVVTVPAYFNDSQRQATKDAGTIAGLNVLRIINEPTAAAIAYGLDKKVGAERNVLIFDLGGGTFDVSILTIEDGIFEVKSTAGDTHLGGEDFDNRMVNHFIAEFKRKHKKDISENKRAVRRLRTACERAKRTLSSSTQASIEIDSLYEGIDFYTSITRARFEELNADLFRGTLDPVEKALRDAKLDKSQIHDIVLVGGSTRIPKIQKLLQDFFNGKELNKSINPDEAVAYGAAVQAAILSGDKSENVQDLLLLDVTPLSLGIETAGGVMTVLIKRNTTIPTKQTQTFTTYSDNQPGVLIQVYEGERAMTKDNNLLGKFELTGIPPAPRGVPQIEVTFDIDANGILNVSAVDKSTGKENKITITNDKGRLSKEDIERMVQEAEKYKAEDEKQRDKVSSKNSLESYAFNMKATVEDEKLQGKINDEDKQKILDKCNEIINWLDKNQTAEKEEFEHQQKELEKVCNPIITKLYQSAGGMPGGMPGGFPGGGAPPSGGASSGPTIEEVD
Experimental: In a separate experiment, further variants of the peptide NLLRLTG (SEQ ID NO: 70) were generated and the ability of these peptides to form a peptide-Hsc70 complex was analyzed. Peptides were again synthesized using standard Fmoc solid-phase chemical synthesis, as described above. Individual peptides were solubilized in pH adjusted water at a concentration of 250 μM, and spiked with polysorbate 20 to a final concentration of 0.1%. To form a peptide-Hsc70 complex, Hsc70 (1 mg/ml, 0.1% polysorbate) was mixed with peptide at peptide:Hsc70 molar ratios of, 0.25:1, 0.5:1, 1:1, 2:1, and 4:1, for 60 minutes at 30° C. Following incubation, samples were cooled for 5 minutes at room temperature and transferred to HPLC vials for analysis. To evaluate the quantity of the complex in the solution, 20 μl (10 μg) of the sample was loaded on a size exclusion chromatography column TSKgel SuperSW3000 (Tosoh Bioscience) at a flow rate of 0.2 ml/min with 1×PBS as a running buffer. The data was collected by measuring the absorbance at 214 nm.
The percent of Hsc70 bound to peptide was calculated by SEC. As shown in the SEC chromatogram depicted in FIG. 1, recombinant human heat shock cognate 71 kDa protein (Hsc70) appeared as monomer (M), dimer (D), trimer (T), and higher order high molecular weight (HMW) oligomeric species when subjected to SEC chromatography. Resolution and evaluation of the extent to which peptide-Hsc70 complex was formed with a given peptide or peptide mixture was complicated by the close elution of a complex of Hsc70 monomer with peptide (Msh). The peaks corresponding to monomer and complex overlap and were not fully resolved by conventional SEC media. In order to more accurately calculate the extent of complex formation, the following data analytical method was used. […] Peak area integrations of these protein species were well resolved from the complex and monomer. Further, the extent to which complex was formed appeared to be […] to the extent to which trimer and dimer were recruited to complex formation. Because of this observation, changes in trimer and dimer reflected the extent to which monomer was recruited to the formation of complex. Thus, the progression of changes in the level of trimer and dimer was used to calculate expected changes in the peak areas of overlapping complex and monomer species, and these calculated peak areas were used to calculate net formation of complex.
Terms used for various chromatographic fractions include: High Molecular Weight (HMW), Trimer and other mid-order oligomer (T), Dimer (D), Complex (C), Monomer shoulder (Msh), and Monomer (M) (see FIG. 1). Peak areas of the various fractions were extracted from SEC data and the percentage of peptide-Hsc70 complex formation was calculated using the following set of equations: % Complex=(AREAcomplex/AREATotal)×100 AREAcomplex=AREATotal−(AreaT+D+AreaMshx+AreaMx) AREATotal=AREAT+D,C,Msh,M+(AREAHDw-x−AREAHDW-0) AREAMshx=AREAMsh0×(AREA(T+D)x)/(AREA(T+D)0) AREAMx=AREAM0×(AREA(T+D)x)/(AREA(T+D)0)
AREATotal is the sum of total integrated peak areas from trimer/oligomer region through the monomer peak and excludes the initial HMW peak area but includes the excess increase of the HMW peak area that was observed when peptide was added. The HMW peak was excluded from the complexation calculation on the basis that it was aggregated protein that was not functional for complexation. This correction took into account AreaTotal factors in the minor increase in HMW area, adding it back to base total area used to calculate area of complex.
The foregoing method was applied to the SEC chromatogram for each complexation reaction by applying vertical lines to the chromatogram to produce HMW, T, C, D, and M segments (as shown in FIG. 1), calculating the area under the curve for of each of the indicated HMW, T, C, D, and M segments, and inputting the values into the equations described above.

[1] = target: T2, Recombinant human Hsc70 (rhHsc70) (Homo sapiens, UniProt P11142); experiment: Complexation of rhHsc70 with PEP006 or a PEP006-containing polypeptide, size exclusion HPLC chromatogram; format: binding
T2 construct: made in house; host or cells: E. coli
T2 sequence (P11142 whole entry): as above
Experimental: Briefly, PEP006 peptide was reconstituted in water for injection (WFI) to a concentration of 645 μM. Recombinant human Hsc70 (rhHsc70) was diluted at a concentration of 1.66 mg/mL. Both solutions were pre-warmed in a 37° C. incubator for 10 minutes, and were combined and incubated at 37° C. for 60 minutes. The final concentration of rhHsc70 was 1 mg/mL (about 14.1 μM), and the molar ratio of PEP006 to rhHsc70 was 0.25:1, 0.5:1, 1:1, 1.5:1, 2:1, 2.5:1, and 3:1. A negative control containing only rhHsc70 at 1 mg/mL was also prepared.
A quantity of 10 μg of each sample was injected neat in triplicate for resolution by size exclusion HPLC (Alliance HPLC, Waters Model #2695 Separations Module; Dual Wavelength UV Detector, Waters Model 2487) using a chromatography column TSKgel SuperSW3000 (Tosoh Bioscience, Catalog #18675). […] UV absorbance of PEP006 peptide and rhHsc70 protein was measured at the wavelengths of 214 nm and 280 nm. The absorbance data was processed by Waters Empower (V2) software. […]
FIG. 3B is a graph showing percent complexation of a polypeptide comprising PEP006 with HSC70 over a range of polypeptide:Hsc70 molar ratios from 0.125:1 to 4:1, as calculated from size exclusion chromatography traces similar to those in FIG. 3A, using the methods described Example 6.1.1. […]

Row | Sequence | Percent complexation of peptides with Hsc70, 0.25:1 (human Hsc70) | Percent complexation of peptides with Hsc70, 0.5:1 (human Hsc70) | Percent complexation of peptides with Hsc70, 1:1 (human Hsc70) | Percent complexation of peptides with Hsc70, 2:1 (human Hsc70) | Percent complexation of peptides with Hsc70, 4:1 (human Hsc70) | column retention time of complexation products when rhHsc70 bound ([1]; polypeptide:Hsc70 molar ratios 0.125:1 to 4:1, FIG. 3A) | column retention time of complexation products when rhHsc70 bound ([1]; PEP006:rhHsc70 molar ratios 0.25:1 to 3:1, 37° C. 60 minutes, FIG. 2)
1 | FRNWLRLTW [PEP028] | 24.0% | 46.4% | 75.6% | 84.1% | 87.5% | – | –
2 | FFRKNWLRLKW [PEP011] | 31.2% | 58.2% | 81.6% | 87.8% | 90.4% | – | –
3 | FFRKNWLRLFW [PEP010] | 19.1% | 42.2% | 64.9% | 79.3% | 86.5% | – | –
4 | FFRKNLLRLTG [PEP001, reference compound] | 23.4% | 44.7% | 68.1% | 82.5% | 90.1% | – | –
5 | FFRKNWLKLRW [PEP057] | 24.9% | 50.0% | 72.2% | 82.8% | 88.3% | – | –
6 | FFRKNFLRLTF [PEP027] | 19.1% | 49.0% | 77.0% | 85.6% | 90.0% | – | –
7 | FFRKNLLRLTW [PEP155] | 22.5% | 48.1% | 75.6% | 82.9% | 86.6% | – | –
8 | FFRKNWIRITW [PEP013] | 25.6% | 48.3% | 69.6% | 81.9% | 87.7% | – | –
9 | FFRKNWLRLLW [PEP009] | 32.8% | 63.5% | 81.0% | 85.3% | 89.0% | – | –
10 | FFRKNWLKLKW [PEP055] | 24.1% | 52.2% | 75.9% | 83.7% | 86.3% | – | –
11 | FFRKNWLKLTW [PEP012] | 29.9% | 58.2% | 79.2% | 86.2% | 89.5% | – | –
12 | FFRKNWLKLWK [PEP058] | 22.7% | 43.5% | 66.5% | 78.8% | 83.9% | – | –
13 | FFRKNLLRWTG [PEP004] | 15.4% | 29.0% | 46.8% | 62.5% | 75.3% | – | –
14 | FFRKNRLWLTG [PEP005] | 16.0% | 32.7% | 54.8% | 67.6% | 77.6% | – | –
15 | LGVVRPRALHRELDLVDDSPTPGSPGSFFRKNWLRLTW [polypeptide comprising PEP006] | – | – | – | – | – | column retention time became shorter | –
16 | FFRKQWLRLTW [PEP014] | 29.3% | 54.4% | 80.9% | 88.1% | 90.3% | – | –
17 | FFRKNWLRLTW [PEP006] | 25.4% | 53.4% | 81.5% | 88.3% | 91.8% | – | column retention time became shorter
18 | FFRKFWLRLTW [PEP008] | 24.4% | 38.3% | 61.8% | 79.1% | 81.6% | – | –
19 | FFRKNRLLLTG [PEP002] | 19.2% | 32.0% | 48.7% | 64.8% | 78.8% | – | –
20 | FFRKNWLLLTW [PEP003] | 26.8% | 45.6% | 67.2% | 81.3% | 87.6% | – | –
